Key:
His-HER3 = target: T1, His-HER3 (Homo sapiens, UniProt P21860); test: Binding kinetics by Biacore (SPR); details: antibody as ligand, analyte His-HER3, Biacore T200
T1 construct: His
Description: Affinity assay by surface plasmon resonance (SPR): antibody kinetics and affinity were determined using Biacore T200. Briefly, the recombinant human HER3 antibody was immobilized on a protein A chip (GE, Cat. 29-1275-5). The antigen concentration, from 50 nM to a final concentration of 0.78125 nM, was generated by 2-fold serial dilution, and affinity and kinetics were determined through the chip.
The binding affinity of humanized 3F8 (hu3F8) and chimeric 3F8. Binding kinetics of 3 humanized 3F8 clones and chimeric 3F8 were determined by Biacore. Three humanized 3F8 clones (clone 1, clone 2 and clone 3) had different heavy chains and one identical light chain. Clone 1, clone 2, and clone 3 corresponded to hu3F8-1, hu3F8-2, and hu3F8-3, respectively.
All data listed in Table 6 were processed using Biacore T200 evaluation software version 3.1.

HER3 [1] = target: T2, HER3 (Homo sapiens, UniProt P21860); test: ELISA binding affinity after incubation at 40° C. (heat stress); details: day 0
T2 construct: human Fc (huFc)
Description: ELISA assay: human HER2-ex-huFc, human HER3-huFc, and human EGFR-his were diluted to 2 μg/mL and 50 μL/well in a 96-well plate and incubated at 4° C. overnight. The plate was washed with 0.5×PBST, then incubated with 100 μL of a blocking buffer (PBS+3% BSA) at 37° C. for 2 h, and washed with 0.5×PBST. The 3F8 antibody was diluted with the blocking buffer in a 1:3 serial gradient, added at 50 μL/well, incubated at 37° C. for 40-50 min, and then washed with 0.5×PBST. Goat anti-mouse IgG-HRP (Southern Biotech, 1030-05) was diluted at 1:20000 with the blocking buffer, added at 50 μL/well, incubated in the dark for 30 min, and then washed with 0.5×PBST. […]
Antibody stability test: the purified antibody at 5 mg/mL was stored at 4° C. as regular practice, incubated at 40° C. for 7 days and 14 days for heat stability evaluation, transferred to a glycine solution at pH 3.5 for regeneration, and stored for 2, 4 and 6 h for acid stability evaluation, or subjected to repeated freeze-thaw treatments for 4 or 6 cycles for freeze-thaw stability evaluation. Aggregation was measured by SEC-HPLC, and binding affinity was determined by ELISA. […]
EC50 assay of the three clones of hu3F8 incubated at 40° C. for different times. The three humanized 3F8 antibody clones were incubated in normal saline at 40° C. for 7 or 14 days, and the binding affinities after heat stress test were determined by ELISA. […]

HER3 [2] = target: T2, HER3; test: ELISA binding affinity after repeated freeze-thaw; details: 0 freeze-thaw cycles
Description: ELISA assay: human HER2-ex-huFc, human HER3-huFc, and human EGFR-his were diluted to 2 μg/mL and 50 μL/well in a 96-well plate and incubated at 4° C. overnight. The plate was washed with 0.5×PBST, then incubated with 100 μL of a blocking buffer (PBS+3% BSA) at 37° C. for 2 h, and washed with 0.5×PBST. The 3F8 antibody was diluted with the blocking buffer in a 1:3 serial gradient, added at 50 μL/well, incubated at 37° C. for 40-50 min, and then washed with 0.5×PBST. Goat anti-mouse IgG-HRP (Southern Biotech, 1030-05) was diluted at 1:20000 with the blocking buffer, added at 50 μL/well, incubated in the dark for 30 min, and then washed with 0.5×PBST. Prior to assay, 50 μL of luminol buffer A+B was added to each well in a 1:1 mix.
Antibody stability test: the purified antibody at 5 mg/mL was stored at 4° C. as regular practice, incubated at 40° C. for 7 days and 14 days for heat stability evaluation, transferred to a glycine solution at pH 3.5 for regeneration, and stored for 2, 4 and 6 h for acid stability evaluation, or subjected to repeated freeze-thaw treatments for 4 or 6 cycles for freeze-thaw stability evaluation. Aggregation was measured by SEC-HPLC, and binding affinity was determined by ELISA.
Three clones of hu3F8 were freeze-thawed for 3 or 5 cycles, and then subjected to ELISA to measure the binding affinities. The chimeric antibody was subjected to parallel assay.

ka (His-HER3): 628000 M⁻¹ s⁻¹ | kd (His-HER3): 0.000391 s⁻¹ | EC50 after incubation at 40° C. (HER3 [1]): 47.37 ng/mL | EC50 after freeze-thaw stress (HER3 [2]): 47.06 ng/mL
B1: Chimeric: murine-human chimeric 3F8 antibody with human IgG1 and Igκ constant regions (antibody, V domains shown)
VH: DVQLQESGPGLVKPSQSLSLTCSVTGYSITSAYYWNWIRQFPGDKLEWMGYISYDGRNNFNPSLKNRISITRDTSKNQFFLKLNSVTSGDTATYYCARDGDYDYFDYWGQGTTLTVSS
VL: DIQMTQTTSSLSASLGDRVTISCRASQDISNYLNWYQQKPDGTFKLLIYYTSILHSGVPSRFSGSGSGTDYSLTISNLEQEDIATYFCQQGDTLPPTFGAGTKLELK
